Assay results taken from patent US5847082, “Terminal complement inhibitor fusion proteins” (Alexion Pharmaceuticals, Inc., dated 1998).
Like-named read-outs stand apart in the source and are kept apart here. Each block holds one molecule with its values, some of them ahead of it.

Columns and labels:
[1] = molecular target: T1, purified human complement component C8 (human, UniProt P07357)
[2] = molecular target: T2, purified human complement component C9 (human, UniProt P02748)
[3] = molecular target: T1, purified human complement component C8; experiment: cell-based or functional assay
[4] = molecular target: T2, purified human complement component C9; experiment: cell-based or functional assay

percent dye release (Calcein AM) after complement attack, Balb/3T3 cells [1]: 3 fold
percent dye release (Calcein AM) after complement attack, Balb/3T3 cells [2]: 3 fold
Molecule: CD59-MCP TMTCIP (transmembrane form of CD59)

percent dye release (Calcein AM) after complement attack, Balb/3T3 cells [3]: ~3 fold
percent dye release (Calcein AM) after complement attack, Balb/3T3 cells [4]: ~3 fold
B1: native human CD59, GPI-anchored (other)
chain: LQCYNCPNPTADCKTAVNCSSDFDACLITKAGLQVYNKCWKFEHCNFNDVTTRLRENELTYYCCKKDLCNFNEQLENGGTSLSEKTVLLLVTPFLAAAWSLHP
modifications: glycosyl-phosphatidylinositol (GPI) anchor at the carboxyl terminus
